# Test results from the nanobody polyreactivity screen of Harvey et al. (2022).
# Experiment: yeast display, Sf9 membrane polyspecificity reagent, FACS + sequencing; frameworks hold sequencing errors
# In short: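 After 36–48 hours of galactose induction, yeast (Saccharomyces cerevisiae BJ5465) displaying a synthetic nanobody library were stained at 4 °C for 1 hour with 10% biotinylated, detergent-solubilized Sf9 membrane reagent. Streptavidin microbeads enriched the stained cells before FACS sorting into low and high (top ~1%) gates on anti-HA and streptavidin fluorescence. Each clone's polyreactivity label reflects its gate of origin.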
row,Sequence,polyreactivity (PSR sort gate)
1,QVQLVESGGGLVQAGGSLRLSCAASGFIFRDNAMGWYRQAPGKERELVAAISKSGGRTYYADSVKGRFTISRDNAKNTVYLLMNSLKPEDTAVYYCAADTYYNLGNYWGQGTQVTVSS,high polyreactivity
2,QVQLVESGGGLVQAGGSLRLSCAASGFIFRDNAMGWYRQAPGKERELVAASSSRGGSTYYADSVKGRFTISRDNAKNTVYLQMNSLKPEDTAVYYCAKRPYKYRVQLDSWGPGTQVTVSS,high polyreactivity
3,QVQLVESGGGLVQAGGSLRLSCAASGFIFRFNAMGWYRQAPGKERELVAGITWSGGSTYYADSVKGRFTISRDNAKNTVYLQMNSLKPEDTAVYYCAADNPYLGRKFDYWGQGTQVTVSS,high polyreactivity
4,QVQLVESGGGLVQAGGSLRLSCAASGFIFRGNGMGWYRQAPGNERELVAAISKSGGRTYYADSVKGRFTISRDNAKNTVYLQMNSLKPEDTAVYYCNARRFWRGDYWGQGTQVTVSS,high polyreactivity
5,QVQLVESGGGLVQAGGSLRLSCAASGFIFRGYAMGWYRQAPGKERELVAAISRRGGSTYYADSVKGRFTISRDNAKNTVYLQMNSLKPEDTAVYYCNARIRYVYWHSYDYWGQGTQVTVSS,high polyreactivity
6,QVQLVESGGGLVQAGGSLRLSCAASGFIFRGYAMGWYRQAPGKERELVAAITGGGGRTYYADSVKGRFTISRDNAKNTVYLQMNSLKPEDTAVYYCARRFAYSFDYGYWGQGTQVTVSS,high polyreactivity
7,QVQLVESGGGLVQAGGSLRLSCAASGFIFRKYAMGWYRQAPGKERELVAAIRQRGGTTYYADSVKGRFTISRDNAKNTVYLQMNSLKPEDTAVYYCAAPYSSAYKYDYWGQGTQVTVSS,high polyreactivity
8,QVQLVESGGGLVQAGGSLRLSCAASGFIFRKYAMGWYRQAPGTERELVAAIRQRGGTTYYADSVKGRFTISRDNAKNTVSLQMNSLKPEDTAVNYCAAPYSSAYKYDYWGQGTQVTVSS,high polyreactivity
9,QVQLVESGGGLVQAGGSLRLSCAASGFIFRLNTMGWYRQAPGKERELVATISSGGSTNYADSVKGRFTISRDNAKITVYLQMNSLKPEDTAVYYCAKKKTRYGGSYNYWGQGTQVTVSS,high polyreactivity
10,QVQLVESGGGLVQAGGSLRLSCAASGFIFRLYDMVRYRQAPGKERELVAAISSGGRTNYADSVKGRFTISSDNPKNTVYLQMNSLKPEDTAVYYCAARSIFGYRSYGYWGQGTQVTVSS,high polyreactivity
11,QVQLVESGGGLVQAGGSLRLSCAASGFIFRPYVMGWYRQAPGKERELVAAISRSGSSTYYADSVKGRFTISRDNAKNTVYLQMNSLKPEDTAVYYCNAVYYLYKGDYWGQGTQVTVSS,high polyreactivity
12,QVQLVESGGGLVQAGGSLRLSCAASGFIFRRNTMGWYRQAPGKERELVAVITWSGGRTYYADSVKGRFTISRDNAKNTVYLQMNSLKPEDTAVYDCTAEQWWSLDYWGQGTQVTVSS,low polyreactivity
13,QVQLVESGGGLVQAGGSLRLSCAASGFIFRRYAMGWYRQAPGKERELVAAIRWDDGNTYYADSVKGRFTISRDNAKNTVYLQMNSLKPEDTAVYYCYADKWSSTDDWLYDYWGQGTQVTVSS,low polyreactivity
14,QVQLVESGGGLVQAGGSLRLSCAASGFIFRRYAMGWYRQAPGKERELVAAISSGGRTYYADSVKGRFTISRDNAKNTVYLQMNSLKPEDTAVYYCAAYSPYLRSWYDYWGQGTQVTVSS,high polyreactivity
15,QVQLVESGGGLVQAGGSLRLSCAASGFIFRRYAMGWYRQAPGKERELVAAITRSGGSTYYADSVKGRFTISRDNAKNTVYLQMNSLKPEDTAVYYCAAPYFGANGKPEYGYWGQGTQVTVSS,high polyreactivity
16,QVQLVESGGGLVQAGGSLRLSCAASGFIFRRYAMGWYRQAPGKERELVAAITRSGGSTYYADSVKGRFTISRDTSKNTVYLQMNSLNPEDTAVYYCATKSSGPVLGYGYDYWGQGTQVTVSS,high polyreactivity
17,QVQLVESGGGLVQAGGSLRLSCAASGFIFRRYTMGWYRQAPGKERELVATITRSVNTDYADSVKGRFTISRDNAKNTVYLQMNSLKPEDTAVYYCAARKYYYFPVAYDYWGQGTQVTVSS,high polyreactivity
18,QVQLVESGGGLVQAGGSLRLSCAASGFIFRRYVMGWYRQAPGKERELVAAISNGGGRTYYADSVKGRFTISRDNAKNTVYLQMNSQKPEDTAVYYCAAYPRGPLAPDYDYWGQGTQVSVSS,high polyreactivity
19,QVQLVESGGGLVQAGGSLRLSCAASGFIFRSYAMGWYRQAPGKERELVAAISDGGGSTYYADSVKGRFTISRDNAKKTVYLQMNSLKPEDTAVYYCNAVYHPKGPSGYGYWGQGTQVTVSS,low polyreactivity
20,QVQLVESGGGLVQAGGSLRLSCAASGFIFRSYAMGWYRQAPGKERELVAAISFSGGRTYYADSVKGRFTISRDNAKNTVYLQMNSLKPEDTAVYYCAAVPARIGVVLHIYTDSHYDYWGQGTQVTVSS,low polyreactivity
21,QVQLVESGGGLVQAGGSLRLSCAASGFIFRSYAMGWYRQAPGKERELVAAITKSGGRTYYADSVKGRFTISRDNAKNTVYLQMNSLKPEDSAVYYCAADQTSYSTSRRYDYWGQGTQVTVSS,high polyreactivity

row,Sequence,polyreactivity (PSR sort gate)
1,QVQLVESGGGLVQAGGSLRLSCAASGFIFRSYAMGWYRQAPGKERELVAAITRSGGSTYYADSVKGRFTISRDNAKNTDYLQMNSLKPEDTAVYYCATRRYWYYILDYWGQGTQVTVSS,high polyreactivity
2,QVQLVESGGGLVQAGGSLRLSCAASGFIFRSYVMGWYRQAPGKERELVAAITRSGVRTYYADSVKGRFTISRDNAKNTVYLQMNSLKPEDTAVYYCNADFSATRYWPGNYWGQGTQVTVSS,high polyreactivity
3,QVQLVESGGGLVQAGGSLRLSCAASGFIFRTNAMGWYRQAPGKERELVAAITSSGGTTFYADSVKGRFTISRDNAKNTVYLQMNSLKPEDTAVYYCAAAYKHRTRSWTYGYWGQGTQVTVSS,high polyreactivity
4,QVQLVESGGGLVQAGGSLRLSCAASGFIFRVNAMGWSRQEPGKERELVAAISASGGTTYYADSVKGRFTISRDNAKNTVYLQMNSQKPEDTAVYYCIAPSRTRYDFWGQGTQVTVSW,low polyreactivity
5,QVQLVESGGGLVQAGGSLRLSCAASGFIFRVNAMGWYRPAPGKERELVAAITKSGGSTYYADSVKGRFTISRDNAKNTVYLQMNSLKPEDTAVYYCNVVWYEGYGHWGQGTQVTVSS,low polyreactivity
6,QVQLVESGGGLVQAGGSLRLSCAASGFIFRWNAMGWYRQAPGKVRELVAAISNSDGSTYYADSVKGRFTISRDNAKNTVYVQMNSLKPEDTAVYYCYKLYRGGWYDYWGQGTQVTVSS,low polyreactivity
7,QVQLVESGGGLVQAGGSLRLSCAASGFIFRWYAMGWYRQAPGKERELVAAITWRGGSTYADSVKGRFTISRDNAKNTVYLQMNSLKPEDTAVCYCAAETHRRYDYWGQGTQVTVSS,high polyreactivity
8,QVQLVESGGGLVQAGGSLRLSCAASGFIFRYNAMGWYRQAPGKERELVAAITSNGGRTYYADSVKGRFTISRDNAKNTVYLQMNSLKPEDTAVYYCNALGRTYPAYQDDYWGQGTQVTVSS,high polyreactivity
9,QVQLVESGGGLVQAGGSLRLSCAASGFIFRYYAKGWYRQAPGKERELVAAISSSGGSTYYADSVKGRFTISRDNAQKTVYLQMNSLKPEDTAVYYCNAYNYGYIGYGYNYWGQGTQVTVSS,high polyreactivity
10,QVQLVESGGGLVQAGGSLRLSCAASGFIFRYYAMGLYRHAPGKERELVASISSGGSTDYADSVKGRFTISRDNAKNTVYLQMNSLKPEDTAVYYCAAGYRSLSLHVGSYRYYYRGQGTQVTVSS,high polyreactivity
11,QVQLVESGGGLVQAGGSLRLSCAASGFIFRYYAMGWARQAPAKERELVAAISWSGTRTFYADSVKARFTISRDNAKNTVYLQMNSLKPEDTAVYYCAAETTGYDSYIQYEYWGQGTQVTVSS,high polyreactivity
12,QVQLVESGGGLVQAGGSLRLSCAASGFIFRYYAMGWLRQAPGKERELVAAISWSGGNTYYADSVKGRFTISRDNAKNTVYLQMNSLKPEDTAVYYCAARVARISVPYDYWGQGTQVTVSS,low polyreactivity
13,QVQLVESGGGLVQAGGSLRLSCAASGFIFRYYAMGWYIQAPGKERELVAAITISGTRTYYADSVKGRFTISRDNAKNTVYLQMNSLKPEDTAVYYCAAYTSVRPKLDYWGQGTQVTVSS,high polyreactivity
14,QVQLVESGGGLVQAGGSLRLSCAASGFIFRYYAMGWYRQAPGKEREFVAGITGTGGSTYYADSVKGRFTISRDNAKNTVYLQMNSLKPEDTAVYYCAADLWYFSSRVRYGYWGQGTQVTVSS,high polyreactivity
15,QVQLVESGGGLVQAGGSLRLSCAASGFIFRYYAMGWYRQAPGKEREFVAVISSGGGRTYYADSVKGRFTISRDNAKNTVYLQMNSLKPEDTAVYYCAKGYRYWVRIVRSFTSYDYWGQGTQVTVSS,high polyreactivity
16,QVQLVESGGGLVQAGGSLRLSCAASGFIFRYYAMGWYRQAPGKERELDAAISGSGGSTYYADSVKGRFTISRDNAKNTVYLQMNSLKPEDTAVYYCAKSYGSHRKIRTSFGYWGQGTQVTVSS,high polyreactivity
17,QVQLVESGGGLVQAGGSLRLSCAASGFIFRYYAMGWYRQAPGKERELVAAIRRGGSTYYADSVKGRFTISRDNAKNTVYLQMNSLKPEDTAVYYCAASFWGIAMGYWGQGTQVTVSS,high polyreactivity
18,QVQLVESGGGLVQAGGSLRLSCAASGFIFRYYAMGWYRQAPGKERELVAAISGSGGSTYYADSVKGRFTISRDNAKNTVYLQMNSLKPEDTAVYYCAAYYYGYEYWGQGTQVTVSS,high polyreactivity
19,QVQLVESGGGLVQAGGSLRLSCAASGFIFRYYAMGWYRQAPGKERELVAAISWSGSSTYYADSVKGRFTISRDNAKNTVYLQMNSLKPEDTAVYYCNAVTRNARDYWGQGTLVTVSS,high polyreactivity
20,QVQLVESGGGLVQAGGSLRLSCAASGFIFRYYAMGWYRQAPGKERELVAAITSDGSTYYADSVKGRFTISRDNAKNTVYLQMNSLKPEDTAVYYCARSVYRFYLKTRASDYWGQGTQETVSS,high polyreactivity
